{"source": "patent US20070020252A1", "about": "“Modified protease inhibitors” (priority 2003, published 2007)", "key": {"[1]": {"assay": "Allometric extrapolation of β-phase half-life from mice and rabbits to humans", "settings": "70 Kg human, linear extrapolation from mice and rabbits", "description": "Data on in vivo pharmacokinetic parameters obtained from small laboratory mammals (e.g. rodents, dogs, and monkeys) can be extrapolated to humans by interspecies scaling (summarized by Mahmood and Balian, Life Sciences 7: 579-585, 1996 and Clin Pharmacokinet 36:1-11, 1999). A simple allometric approach describes the relationship between bodyweight (W) and a pharmacokinetic parameter of interest (Y) in terms of the power function: Y=aW^b (Equation 4) where a and b are the empirically determined coefficient and exponent of the allometric equation, respectively. […] Further, of the three most important pharmacokinetic parameters (total body clearance, volume of distribution, and t1/2β) typically measured, t1/2β is least well predicted by Equation 4. With these caveats in mind, data presented in Tables 2 and 4 can be used to provide crude estimates of expected t1/2β in humans.\nFIG. 10 presents data from Tables 2 and 4 plotted as log [Beta Phase Half-Live] vs log [Body Mass] for unmodified DX-890 (triangles) and mono-PEG30-DX-890 (circles). Linear extrapolations of the experimental data for mice (25 gm) and rabbits (2.5 Kg) to humans (70 Kg) are shown by the solid crosses in the figure. The extrapolated values for β-phase half-lives in humans are ˜5 hours for unmodified DX-890 and ˜14 days for mono-PEG30-DX-890. […]"}, "[2]": {"assay": "Pharmacokinetic study in mice: plasma clearance of 125I-labeled protein, SEC of plasma", "assay_type": "in vivo", "procedure": "The pharmacokinetics of DX-890 and the PEGylated DX-890 compounds were measured by iodinating the proteins on available tyrosine residues and measuring their clearance in mice.\nSamples were radio-iodinated by the indirect method using the IODO-GEN reagent (method from Pierce Chem. Co., and first described by Chizzonite [J Immunol 147, 1548-1556, 1991; J. Immunol 148, 3117-3124, 1992]). Samples were incubated with the ^125I-NaI solution for 9 min at which time tyrosine (10 mg/mL, a saturated solution) was added to quench the reaction. After about 15 min a 5 μl aliquot was removed as a standard for counting.\nFor each labeling reaction, the ^125I-labeled material (approx. 0.6 mL) was purified using a single 5 mL D-salt 1800 polyacrylamide column (Pierce Chem. Co.). […] Samples were applied in and columns were eluted with a series of 0.3 mL aliquots. Recovery of applied activity in all protein fractions was >75% and the total recovery of applied activity was >90%. The fractions containing peak levels of labeled protein were pooled for animal injections. To prepare the injectate, the pool was diluted with Tris buffer (pH 7.5) so that the 100 μL injection volume contained about 10 μg of labeled material.\nTime of injection and time of sampling were recorded. At sacrifice, samples of 0.5 ml were collected into anticoagulant (0.02 ml EDTA). Cells were spun down and separated from plasma, and cells were stored at −20° C. Plasma was divided into two aliquots, one frozen and one stored at 4° C. for immediate analysis. Analysis included gamma counting of all samples. In addition, analysis was performed for two plasma samples (N=2) at each time point, i.e., 0, and 30 minutes, for ^125I-DX-890, and 0, 30 minutes, and 24 h for the ^125I-DX-890-PEG conjugates. A SEC-HPLC Superose-12 column was used with an in-line radiation detector (FIGS. 4-7).\nThe solid curves through the sets of data plotted in FIG. 3 are four-parameter, least-squares fits of Equation 3 to the data. Table 3 presents the values for % α Phase, α Phase Half-life, % β Phase, and β Phase Half-life extracted from the least squares fits to the in vivo clearance data set obtained for each of the four compounds tested in mice."}, "[3]": {"molecular_target": "T1, human neutrophil elastase (HNE) (Homo sapiens, UniProt P08246)", "T1 sequence (P08246 30-267)": "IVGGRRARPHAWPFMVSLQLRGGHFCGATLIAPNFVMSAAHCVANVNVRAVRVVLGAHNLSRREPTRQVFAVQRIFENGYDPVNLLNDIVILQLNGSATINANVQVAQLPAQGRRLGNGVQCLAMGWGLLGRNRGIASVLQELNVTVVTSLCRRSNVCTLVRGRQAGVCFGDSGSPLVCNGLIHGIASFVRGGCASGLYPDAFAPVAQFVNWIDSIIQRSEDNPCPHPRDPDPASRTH", "settings": "description statement; cited from earlier work"}, "[4]": {"assay": "Pharmacokinetic study in rabbits: plasma clearance of 125I-labeled protein, SEC of plasma", "assay_type": "in vivo, New Zealand White rabbits", "procedure": "Pharmacokinetic properties of DX-890 and PEG-30-DX-890 (conjugation at pH 7.4) were measured by iodinating the proteins and measuring clearance of the radiolabel from circulation in rabbits. The two DX-890 preparations were iodinated with iodine-125 using the iodogen method. After radiolabeling, the two labeled protein preparations were purified from unbound label by size exclusion chromatography (SEC). Fractions from the SEC column having the highest radioactivity were pooled. The purified, radiolabeled preparations were characterized for specific activity by gamma counting and for purity by SEC using a Superose-12 column equipped with an in-line radiation detector.\nNew Zealand White rabbits (ca. 2.5 Kg) were used for clearance measurements, with one animal used for each of the two labeled protein preparations. The radiolabeled preparation was injected into the animal via an ear vein. One blood sample was collected per animal per time point with early time points at approximately 0, 2.5, 5, 7, 15, 30, 60, and 90 minutes post injection and later time points at 4, 8, 16, 24, 30, 48, 72, 96, 144, 168, and 192 hours post injection. Samples (about 0.5 mL) were collected into anticoagulant (EDTA) containing tubes. Cells were separated from the plasma fraction by centrifugation. The plasma fraction was divided into two aliquots. One plasma aliquot was stored at −70° C. and the other aliquot was kept at 4° C. for immediate analyse's. Sample analyses included radiation counting for clearance rate determinations and SEC chromatography to test for changes in the size distribution of radiolabeled material in vivo (stability)."}, "[5]": {"settings": "tail vein injection, bi-exponential fit"}, "[6]": {"settings": "ear vein injection, bi-exponential fit"}}, "note": "pKi: −log10 of the molar value."}
{"substance": "DX-890: 56 amino acid Kunitz domain polypeptide derived from ITI-D2, inhibitor of human neutrophil elastase, produced in Pichia pastoris (EACNLPIVRGPCIAFFPRWAFDAVKGKCVLFPYGGCQGNGNKFYSEKECREYCGVP)", "values": [{"measurement": "extrapolated β-phase half-life in humans", "setting": "[1]", "result": "~5", "unit": "h"}, {"measurement": "percentage cleared in the β phase", "setting": "[2]", "result": "about 15%"}, {"measurement": "α phase half life", "setting": "[2]", "result": "about 1 min"}, {"measurement": "β phase half life", "setting": "[2]", "result": "about 1 hr"}, {"measurement": "material remaining in circulation", "setting": "[2]; 30 minutes after injection", "result": "less than 20%"}, {"measurement": "α half life", "setting": "[2]; Table 4 summary", "result": 1, "unit": "min"}, {"measurement": "β half life", "setting": "[2]; Table 4 summary", "result": 1.32, "unit": "h"}, {"measurement": "α Phase Clearance (%)", "setting": "[2]; [5]", "result": 84, "unit": "%"}, {"measurement": "α Phase Half-life", "setting": "[2]; [5]", "result": 1.0, "unit": "min"}, {"measurement": "β Phase Clearance (%)", "setting": "[2]; [5]", "result": 16, "unit": "%"}, {"measurement": "β Phase Half-life (hr)", "setting": "[2]; [5]", "result": 1.3, "unit": "h"}, {"measurement": "β Phase Half-life (min)", "setting": "[2]; [5]", "result": 79, "unit": "min"}, {"measurement": "pKi", "setting": "[3]", "result": 11.40}, {"measurement": "in vivo stability, SEC analysis of plasma", "setting": "[4]", "result": "relatively rapid association of label with higher molecular weight plasma components"}, {"measurement": "% α", "setting": "[4]; [6]", "result": 75, "unit": "%"}, {"measurement": "% β", "setting": "[4]; [6]", "result": 25, "unit": "%"}, {"measurement": "T1/2α", "setting": "[4]; [6]", "result": 24, "unit": "s"}, {"measurement": "T1/2β", "setting": "[4]; [6]", "result": 2.75, "unit": "h"}]}
